One assay addresses S2 (D1139-D1153). Nature of the assay: ELISA.
The target in another assay is S2 (G1124-H1159). Nature of the assay: ELISA. (ELISA stands for enzyme-linked immunosorbent assay.)
The target in assay [1] is T1, SARS-CoV-2 S2 (T1076-Q1208) antigen, trimeric S2 fusion-core-based antigen (SARS-CoV-2, UniProt P0DTC2 1076-1208).
T1 chain: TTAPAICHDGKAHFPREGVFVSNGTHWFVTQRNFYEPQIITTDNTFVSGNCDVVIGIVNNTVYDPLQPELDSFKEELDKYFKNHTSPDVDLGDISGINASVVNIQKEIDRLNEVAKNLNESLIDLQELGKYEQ
Nature of the assay: BLI. (In BLI a coated tip is dipped into the sample, and binding shifts an interference pattern.)

Assay [2] addresses T2, GST-fused truncated S2 protein S2 (D1139-E1151) (SARS-CoV-2, UniProt P0DTC2 1139-1151).
T2 chain: DPLQPELDSFKEE
Nature of the assay: ELISA.

Data on two molecules can be found in PMC12052392 (2025).

What is called EC50 is the concentration giving half of the maximal effect. A high value points to weaker potency. By koff is commonly meant the first-order rate constant of dissociation. Low readings indicate a long-lived complex, high ones a short-lived complex.

Numbering of substitutions follows the chain as printed. Several values for one entry are separate records, joined by “and”; a condition that tells them apart may be missing. Equal values may be shown once.

B1: nanobody H145 (VHH)
VHH: QVQLVESGGGLVQTGGSLRLSCEASGSAFSSYAVNWYRQAPGKQREPVAAIGSFNTVYSDSVKGRFTISRDNAKNTVYLQMNSLKPEDTAVYICNARRGATNTWGQGTQVTVSS
modifications: biotin (Biotinylation Kit), only in the BLI with truncated S2 proteins
In the case of B1, the EC50 with S2 (D1139-D1153) was 1.01 nM; with S2 (G1124-H1159), 0.53 nM; in assay [2], more than 170 nM. Besides, the koff in assay [1] was 0.000149 s⁻¹ and 0.000129 s⁻¹ and 0.000123 s⁻¹.

B2: nanobody H17 (VHH)
VHH: B1 VHH with Q1E, L4V, E23A, I93V, T103Y, S114P
modifications: biotin (Biotinylation Kit), only in the BLI with truncated S2 proteins
B2: the results for the EC50 with S2 (D1139-D1153) and in the assay with S2 (G1124-H1159) were 4.83 nM and 4.71 nM, respectively. In addition, the koff in assay [1] was 0.000525 s⁻¹ and 0.00023 s⁻¹.
